For assay [1], the target named is Aspf2 expressed on the surface of A. fumigatus conidia (Aspergillus fumigatus (endogenous in CEA17 ΔakuB^Ku80 conidia)) (UniProt P79017). Nature of the assay: flow cytometry on cells; wild-type, Δaspf2 and aspf2^C conidia (BSA-treated) incubated with increasing amounts of purified Factor H, FHL-1, FHR1 or plasminogen 1 h at RT; bound protein detected with antibodies; median fluorescence intensity. In general terms: In flow cytometry, cells or beads pass a laser one at a time.

In assay [2] the target is Recombinant Aspf2 (A. fumigatus) lacking the N-terminal 19-amino acid signal peptide, His-tagged (Aspergillus fumigatus) (UniProt P79017). Nature of the assay: BLI; Aspf2 loaded on Ni(II)-NTA biosensor; analyte Factor H 190-3,000 nM (150 s association, 150 s dissociation) or plasminogen 687.5-5,500 nM (200 s each); buffer control subtracted, BLITZ software.
For assay [3], the target named is Aspf2 expressed on the surface of A. fumigatus conidia (Aspergillus fumigatus (endogenous in CEA17 ΔakuB^Ku80 conidia)) (UniProt P79017). Kind of assay: flow cytometry on cells; wild-type, Δaspf2 and aspf2^C conidia (BSA-treated) incubated with increasing amounts of purified Factor H, FHL-1, FHR1 or plasminogen 1 h at RT; bound protein detected with antibodies; median fluorescence intensity. This is another data set of the same source.

Another assay has as its target T1, Human Factor H (human, UniProt P08603 19-1231).
T1 construct: human complement Factor H, 150-kDa plasma protein composed of 20 short conserved repeats (SCR); also called NHS derived Factor H; source: bought: CompTech (purified human Factor H); also in normal human serum (NHS-EDTA) and C3 depleted serum
Nature of the assay: BLI; Aspf2 loaded on Ni(II)-NTA biosensor; analyte Factor H 190-3,000 nM (150 s association, 150 s dissociation) or plasminogen 687.5-5,500 nM (200 s each); buffer control subtracted, BLITZ software. The note with it: both partners purified. Background: Biolayer interferometry detects binding as a change in optical thickness at a sensor tip.

Where two headings read alike, the source gives them in different places.

T1 sequence (P08603 19-1231): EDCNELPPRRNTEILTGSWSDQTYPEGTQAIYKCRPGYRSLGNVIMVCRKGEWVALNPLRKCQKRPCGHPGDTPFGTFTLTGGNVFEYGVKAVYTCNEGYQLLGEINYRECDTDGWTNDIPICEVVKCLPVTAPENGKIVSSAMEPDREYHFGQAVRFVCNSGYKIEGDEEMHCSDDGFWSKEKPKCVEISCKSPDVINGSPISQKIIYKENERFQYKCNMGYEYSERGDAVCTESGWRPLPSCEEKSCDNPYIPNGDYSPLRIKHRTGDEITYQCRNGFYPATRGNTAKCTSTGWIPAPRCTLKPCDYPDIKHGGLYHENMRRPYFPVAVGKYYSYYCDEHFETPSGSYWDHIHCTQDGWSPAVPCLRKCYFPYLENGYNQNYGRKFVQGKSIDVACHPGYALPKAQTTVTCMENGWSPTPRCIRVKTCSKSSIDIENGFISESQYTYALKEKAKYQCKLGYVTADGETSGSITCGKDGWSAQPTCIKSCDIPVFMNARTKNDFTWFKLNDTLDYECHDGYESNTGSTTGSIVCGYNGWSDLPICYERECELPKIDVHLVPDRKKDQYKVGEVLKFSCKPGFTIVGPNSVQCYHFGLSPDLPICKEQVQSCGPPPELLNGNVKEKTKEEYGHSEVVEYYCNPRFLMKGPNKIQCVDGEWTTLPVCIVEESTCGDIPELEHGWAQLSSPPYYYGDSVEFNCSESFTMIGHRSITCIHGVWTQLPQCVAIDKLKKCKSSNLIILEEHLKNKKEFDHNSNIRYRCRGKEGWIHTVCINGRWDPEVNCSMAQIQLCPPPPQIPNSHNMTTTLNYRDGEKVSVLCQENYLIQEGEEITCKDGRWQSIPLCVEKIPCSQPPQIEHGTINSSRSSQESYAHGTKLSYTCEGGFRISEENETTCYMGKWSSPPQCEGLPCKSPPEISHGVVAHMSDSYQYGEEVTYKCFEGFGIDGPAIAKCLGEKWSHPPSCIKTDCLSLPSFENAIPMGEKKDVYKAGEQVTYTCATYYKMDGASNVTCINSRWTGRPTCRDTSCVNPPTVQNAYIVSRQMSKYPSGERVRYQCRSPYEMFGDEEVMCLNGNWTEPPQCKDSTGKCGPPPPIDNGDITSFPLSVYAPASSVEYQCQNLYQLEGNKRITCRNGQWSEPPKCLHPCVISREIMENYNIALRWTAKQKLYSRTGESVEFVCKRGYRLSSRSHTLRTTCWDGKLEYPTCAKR

In the case of Human plasminogen (natural protein), the percent lower binding to Δaspf2 conidia than to wild-type conidia (plasminogen at 20 µg/ml) was 24% in assay [1] and 31% in assay [3]. Moreover, the Kd in assay [2] amounted to 846 nM.

B1: Recombinant Aspf2 (A. fumigatus) lacking the N-terminal 19-amino acid signal peptide, His-tagged (natural protein, Aspergillus fumigatus, UniProt P79017 20-310, looked up)
chain: TLPTSPVPIAARATPHEPVFFSWDAGAVTSFPIHSSCNATQRRQIEAGLNEAVELARHAKAHILRWGNESEIYRKYFGNRPTMEAVGAYDVIVNGDKANVLFRCDNPDGNCALEGWGGHWRGANATSETVICDRSYTTRRWLVSMCSQGYTVAGSETNTFWASDLMHRLYHVPAVGQGWVDHFADGYDEVIALAKSNGTESTHDSEALQYFALEAYAFDIAAPGVGCAGESHGPDQGHDTGSASAPASTSTSSSSSGSGSGATTTPTDSPSATIDVPSNCHTHEGGQLHCT
notes: Aspf2 of Aspergillus fumigatus, a 310 amino acid-long protein; cloned from cDNA of strain CEA17 akuB^KU80 without the N-terminal 19-amino acid signal peptide; also called ΔN19AspF2; source: Pichia pastoris X33 (pPICZαB), culture supernatant, purified (HisTrap column)
Molecule B1 showed a Kd in the assay with Human Factor H of 76 nM.

As usually defined, the Kd is the free concentration of one partner at which half of the binding sites on the other are occupied at equilibrium, for simple one-to-one binding.

The values are drawn from publication PMC6106110, “Aspf2 From Aspergillus fumigatus Recruits Human Immune Regulators for Immune Evasion and Cell Damage” (Frontiers in Immunology, 2018).
